Data: paper PMC3819411

Biological target: Bardet-Biedl syndrome 5 protein (BBS5), endogenous in bovine rod outer segments (bovine (endogenous in rod outer segments))
Experiment: co-IP

reduction of co-precipitated Arr1 after light or phorbol ester against dark: 50%
Substance: arrestin1 (Arr1), endogenous in bovine rod outer segments (from UniProt P08168 1-404) (natural protein)
